Measurements taken from paper PMC11099015.
Read-outs that look alike come from different tables or passages of the source.

Columns and labels:
SETD3(1−498) [1] = molecular target: SETD3(1−498) (UniProt Q86TU7); assay: BLI
SETD3(1−498) [2] = molecular target: SETD3(1−498) (UniProt Q86TU7); assay: AUC

Substance | Kd (SETD3(1−498) [1]) [nM] | stoichiometry N (SETD3(1−498) [2]) | Kd (SETD3(1−498) [1]; 2A KHY(70-72)AAA at 12.5, 6.25, 3.13, 1.56 and 0.78 µM) [nM]
CVB3 2A C107A (enzyme) | 11.8 | – | –
EV71 2A C110A (enzyme) | 22.7 | 1 | –
EV71 2A C110A K70A; H71A; Y72A | – | – | 1750
